According to publication PMC7064771, “Repurposed Drugs That Block the Gonococcus-Complement Receptor 3 Interaction Can Prevent and Cure Gonococcal Infection of Primary Human Cervical Epithelial Cells” (mBio, 2020):

Tests used:
mouse rI-domain = molecular target: T1, mouse rI-domain (Mus musculus, UniProt P05555); test: Surface plasmon resonance, immobilized mouse rI-domain; settings: purified pilin 0.125-2 μM; NCDI = no concentration-dependent interaction (no binding of ≤2 μM)
T1 construct: Recombinant human and mouse I-domain proteins were made and purified as previously described; made in house
Protocol: (§1) SPR analyses were performed using a Biacore S200 system (GE Healthcare Life Sciences, Parramatta, NSW, Australia). Samples were analyzed at 25°C in phosphate-buffered saline (PBS) at a flow rate of 10 μl/min and by using single-cycle kinetics. Human rI-domain, mouse rI-domain, and human rCR3 were immobilized onto separate cells of a Series S CM5 sensor chip using an NHS capture kit (both from GE Healthcare Life Sciences) for purified pilin experiments. For experiments in which pilin-glycan-like structures were examined, human rI-domain and rCR3 were immobilized onto separate cells of a CM5 chip. A blank immobilization was used as a control/reference on all chips. MS11 wild-type and MS11 pglA pilin were serially diluted from 2 μM to 0.125 μM in PBS. Glycans (Dextra Laboratories, Reading, UK) (Table 2), resembling the gonococcal Gal(α1-3)diNAcBac pilin-linked glycan, were serially diluted from 2 μM to 0.0078 μM in PBS. Affinity data points were taken at 15 s after injection to avoid an artefactual signal resulting from bulk transport. SPR sensorgrams were analyzed using Biacore Evaluation software (GE Healthcare Life Sciences).

human rI-domain = molecular target: T2, human rI-domain (Homo sapiens, UniProt P11215); test: Surface plasmon resonance, immobilized human rI-domain; format: binding; settings: purified pilin 0.125-2 μM; NCDI = no concentration-dependent interaction (no binding of ≤2 μM); read-out: KD, rI-domain, Human
T2 construct: Recombinant human and mouse I-domain proteins were made and purified as previously described; made in house
Protocol: as §1

T1 sequence (P05555 164-338): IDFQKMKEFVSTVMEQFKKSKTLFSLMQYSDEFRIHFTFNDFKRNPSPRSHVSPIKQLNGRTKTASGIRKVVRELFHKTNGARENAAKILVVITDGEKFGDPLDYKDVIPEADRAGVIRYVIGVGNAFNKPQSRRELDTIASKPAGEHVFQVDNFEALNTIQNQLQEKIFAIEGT
T2 sequence (P11215 150-328 limits assumed): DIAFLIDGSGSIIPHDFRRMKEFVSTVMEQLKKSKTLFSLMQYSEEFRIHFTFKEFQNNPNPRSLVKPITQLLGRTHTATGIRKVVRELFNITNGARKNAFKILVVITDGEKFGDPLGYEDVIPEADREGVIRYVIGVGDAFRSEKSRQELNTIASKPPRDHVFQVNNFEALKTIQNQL

B1: MS11 wild type: N. gonorrhoeae MS11 pilin modified with the Gal(α1-3)diNAcBac disaccharide glycan (protein, UniProt P02974 8-165, looked up)
Type IV major pilin protein …: FTLIELMIVIAIVGILAAVALPAYQDYTARAQVSEAILLAEGQKSAVTEYYLNHGKWPENNTSAGVASPPSDIKGKYVKEVEVKNGVVTATMLSSGVNNEIKGKKLSLWARRENGSVKWFCGQPVTRTDDDTVADAKDGKEIDTKHLPSTCRDNFDAK
modifications: Gal(α1-3)diNAcBac disaccharide glycan
notes: N. gonorrhoeae MS11 pilin modified with the Gal(α1-3)diNAcBac disaccharide glycan
KD, rI-domain, Mouse (mouse rI-domain): NCDI | Kd (human rI-domain): 349 ± 45 nM
